Biological target: human serum albumin (HSA) (Homo sapiens, UniProt P02768 25-609)
Assay: graphene oxide fluorescence recovery (aptamer release from GO); GO-aptamer complex, PBS pH 7.4, HSA 0.001-1.5 mg/mL; LOD 0.203 ug/mL, no Kd; PBS pH 7.4, room temperature; 15 uL of 5 uM Cy5-H8 + 85 uL GO-PBS (15 uL of 5 mg/mL GO in 70 uL PBS) 5 min in the dark, then 100 uL HSA for 30 min; also artificial urine
Conditions: protein: commercial; label: 5'-Cy5

human serum albumin (HSA), sequence (P02768 25-609): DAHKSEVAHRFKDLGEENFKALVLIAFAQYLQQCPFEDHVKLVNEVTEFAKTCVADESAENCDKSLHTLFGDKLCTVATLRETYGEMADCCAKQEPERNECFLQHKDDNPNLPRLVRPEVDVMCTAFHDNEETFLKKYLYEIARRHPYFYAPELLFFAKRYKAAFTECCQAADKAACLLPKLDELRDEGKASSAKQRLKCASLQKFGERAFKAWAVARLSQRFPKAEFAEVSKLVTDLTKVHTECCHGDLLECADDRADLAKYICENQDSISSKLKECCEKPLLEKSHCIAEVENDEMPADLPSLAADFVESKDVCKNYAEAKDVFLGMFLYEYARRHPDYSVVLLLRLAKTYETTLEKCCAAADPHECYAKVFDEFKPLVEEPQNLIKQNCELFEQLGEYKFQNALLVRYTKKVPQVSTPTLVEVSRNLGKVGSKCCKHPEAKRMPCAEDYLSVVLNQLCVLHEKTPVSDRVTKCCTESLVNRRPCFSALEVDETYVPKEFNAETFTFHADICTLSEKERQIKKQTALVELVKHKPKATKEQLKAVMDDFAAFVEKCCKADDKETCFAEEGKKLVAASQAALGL

B1: H8 albumin aptamer (ssDNA)
DNA: ATACCAGCTTATTCAATTCCCCCGGCTTTGGTTTAGAGGTAGTTGCTCATTACTTGTACGCTCCGGATGAGATAGTAAGTGCAATCT
**Q.** Does B1 bind?
**A.** binds
